Paper doi:10.1101/2020.08.19.257725 (bioRxiv, 2020)

Key:
[1] = biological target: cynomolgus monkey albumin (Macaca fascicularis, UniProt A2V9Z4); assay: pull-down
[2] = biological target: T1, Human serum albumin (Homo sapiens, UniProt P02768); assay: pull-down
[3] = biological target: T2, mouse albumin (Mus musculus, UniProt P07724); assay: pull-down
[4] = biological target: T1, Human serum albumin; assay: SPR
[5] = biological target: T2, mouse albumin; assay: ELISA

T2 sequence (P07724 25-608): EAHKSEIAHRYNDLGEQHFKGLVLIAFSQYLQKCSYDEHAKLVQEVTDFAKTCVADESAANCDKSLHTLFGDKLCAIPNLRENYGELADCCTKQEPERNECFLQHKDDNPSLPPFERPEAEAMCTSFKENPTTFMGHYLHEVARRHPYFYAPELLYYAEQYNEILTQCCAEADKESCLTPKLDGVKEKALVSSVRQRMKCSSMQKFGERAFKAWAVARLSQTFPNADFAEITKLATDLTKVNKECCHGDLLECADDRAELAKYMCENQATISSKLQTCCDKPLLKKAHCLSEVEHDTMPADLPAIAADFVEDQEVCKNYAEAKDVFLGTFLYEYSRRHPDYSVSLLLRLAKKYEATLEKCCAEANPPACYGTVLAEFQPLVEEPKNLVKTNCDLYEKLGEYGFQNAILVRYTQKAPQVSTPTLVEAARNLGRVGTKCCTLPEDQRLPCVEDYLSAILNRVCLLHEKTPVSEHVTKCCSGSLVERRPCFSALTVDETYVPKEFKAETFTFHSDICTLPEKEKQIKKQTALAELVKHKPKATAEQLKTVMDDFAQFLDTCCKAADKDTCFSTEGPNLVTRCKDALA
cynomolgus monkey albumin, sequence (A2V9Z4 25-608): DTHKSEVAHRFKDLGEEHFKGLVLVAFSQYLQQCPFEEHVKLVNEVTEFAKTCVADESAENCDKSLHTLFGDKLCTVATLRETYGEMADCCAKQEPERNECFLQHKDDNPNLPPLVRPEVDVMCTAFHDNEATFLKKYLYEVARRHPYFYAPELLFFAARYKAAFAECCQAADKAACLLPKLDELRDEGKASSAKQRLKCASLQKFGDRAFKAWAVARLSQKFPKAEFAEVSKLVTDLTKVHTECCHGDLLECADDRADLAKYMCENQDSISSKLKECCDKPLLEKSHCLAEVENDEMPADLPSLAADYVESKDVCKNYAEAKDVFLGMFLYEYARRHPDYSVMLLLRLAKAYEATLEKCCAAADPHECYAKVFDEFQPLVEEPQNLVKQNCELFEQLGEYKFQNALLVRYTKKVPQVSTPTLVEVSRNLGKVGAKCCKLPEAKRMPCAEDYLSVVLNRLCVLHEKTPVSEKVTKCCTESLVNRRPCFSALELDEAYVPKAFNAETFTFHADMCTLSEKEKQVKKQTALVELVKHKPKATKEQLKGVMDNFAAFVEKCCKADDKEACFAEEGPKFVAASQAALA

B1: Nb132 (VHH)
VHH: HVQLVESGGGLVQAGGSLRLSCAASGGTISNYGMGWLRQGPGKEREFVGSINWNGATTHYADSVKGRFIISRDNAKNTVYLQMNSLKPEDTGVYYCVAQFSVQPTLRTYDYGGQGTQVTVSE
B1: binds [1]; binds [2]; binds [3].

B2: Nb80 (VHH)
VHH: EVQLVESGGGLVQAGGSLRLSCTASGRTFTPYTMGWFRQAPGKEREFVASILWSGNNRDYADSVKGRFAISRDNAKNTAYLQMTSLKPEDTAVYYCAAGDGLGFYRSVNQYDYWGQGTQVTVS
B2 was tested, and the Kd [4] was 0.166 nM and the binding result [5] was “binds”.

B3: Nb13 (VHH)
VHH: HVQLVESGGELVQAGGSLRLSCAASGRTFSNYAMGWFRQAPGTEREFVAAISRSGGSTYYADSVKGRFIISRDNAKNTVWLQMNMLKPEDTSVYYCAAAEGLASGSYDYAPPLKSSWYDYWGQGTQVTVSE
Work on B3 yielded a Kd [4] of 0.201 nM.

B4: Nb126 (VHH)
VHH: QVQLVESGGGLVQAGGSLRLSCAASGLTFSNYVMGWFRQAPGKEREFVAYIHWSGGRILYADSVKGRFTISRDNTKNTMYLQMNSLKPDDTAVYYCTADQYATTVLRAAGEYWGQGTQVTVSE
B4 gave a Kd [4] of 0.251 nM.

B5: Nb77 (VHH)
VHH: QVQLVESGGGLVQAGGSLRLSCTASGRTYEPLVMGWFRQAPGKEREFVATITPSGGSLSYADSVKGRFTVSRDNAKKTVYLQMNRLQPEDTAVYYCAAAPGVGNYRYTRQYDYWGQGTQVTVSE
B5: binds [5].
